Experimental findings from US20240109958 are described below.

The series has as its target Ub vinyl sulfone HA-tagged probe (Ub-VS-HA; Cat #U-212, Boston Biochem), P0CG48.

Chain of Ub vinyl sulfone HA-tagged probe (Ub-VS-HA; Cat #U-212, Boston Biochem), P0CG48 (P0CG48 whole entry, looked up): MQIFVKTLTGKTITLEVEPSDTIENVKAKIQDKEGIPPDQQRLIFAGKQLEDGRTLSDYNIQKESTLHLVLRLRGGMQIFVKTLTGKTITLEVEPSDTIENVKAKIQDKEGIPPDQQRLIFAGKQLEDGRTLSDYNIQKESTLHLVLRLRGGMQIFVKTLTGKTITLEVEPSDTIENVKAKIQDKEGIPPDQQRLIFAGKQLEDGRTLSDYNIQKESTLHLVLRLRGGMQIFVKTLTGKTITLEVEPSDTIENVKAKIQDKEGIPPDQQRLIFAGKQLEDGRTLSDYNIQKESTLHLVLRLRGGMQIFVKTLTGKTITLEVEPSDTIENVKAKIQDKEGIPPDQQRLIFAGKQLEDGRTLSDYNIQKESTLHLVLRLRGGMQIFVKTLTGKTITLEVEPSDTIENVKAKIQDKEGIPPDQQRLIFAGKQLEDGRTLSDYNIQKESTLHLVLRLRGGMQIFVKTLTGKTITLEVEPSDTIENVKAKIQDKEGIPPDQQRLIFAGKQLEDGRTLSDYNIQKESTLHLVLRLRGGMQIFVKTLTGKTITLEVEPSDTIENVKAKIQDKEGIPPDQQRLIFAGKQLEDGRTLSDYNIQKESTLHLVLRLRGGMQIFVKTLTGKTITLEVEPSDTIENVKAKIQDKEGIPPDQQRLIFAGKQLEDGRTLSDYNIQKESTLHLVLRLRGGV

B1: wild-type UCHL1 (UCHL1^WT), C-terminal 6-His tag (protein)
chain: MQLKPMEINPEMLNKVLSRLGVAGQWRFVDVLGLEEESLGSVPAPACALLLLFPLTAQHENFRKKQIEELKGQEVSPKVYFMKQTIGNSCGTIGLIHAVANNQDKLGFEDGSVLKQFLSETEKMSPEDRAKCFEKNEAIQAAHDAVAQEGQCRVDDKVNFHFILFNNVDGHLYELDGRMPFPVNHGASSEDTLLKDAAKVCREFTEREQGEVRFSAVALCHHHHHH
Regarding B1, the “modification by the suicide probe Ub-VS (immunoblot)” value is given as “UCHL1^WT readily reacted with Ub-VS, nearing completion after 30 minutes”.

B2: wild-type UCHL5 (UCHL5^WT), C-terminal 6-His tag (protein)
chain: MTGNAGEWCLMESDPGVFTELIKGFGCRGAQVEEIWSLEPENFEKLKPVHGLIFLFKWQPGEEPAGSVVQDSRLDTIFFAKQVINNACATQAIVSVLLNCTHQDVHLGETLSEFKEFSQSFDAAMKGLALSNSDVIRQVHNSFARQQMFEFDTKTSAKEEDAFHFVSYVPVNGRLYELDGLREGPIDLGACNQDDWISAVRPVIEKRIQKYSEGEIRFNLMAIVSDRKMIYEQKIAELQRQLAEEEPMDTDQGNSMLSAIQSEVAKNQMLIEEEVQKLKRYKIENIRRKHNYLPFIMELLKTLAEHQQLIPLVEKAKEKQNAKKAQETKHHHHHH
B2: the “modification by the suicide probe Ub-VS (immunoblot)” value is given as “UCHL5^WT was only partially modified at 30 minutes”.
